Experimental data taken from PMC7226451, “Half Way to Hypusine—Structural Basis for Substrate Recognition by Human Deoxyhypusine Synthase” (Biomolecules, 2020).

B1: truncated DHS Δ1-52 (domain or fragment, human, UniProt P49366 53-369, looked up)
chain: GFQATNFGRAVQQVNAMIEKKLEPLSQDEDQHADLTQSRRPLTSCTIFLGYTSNLISSGIRETIRYLVQHNMVDVLVTTAGGVEEDLIKCLAPTYLGEFSLRGKELRENGINRIGNLLVPNENYCKFEDWLMPILDQMVMEQNTEGVKWTPSKMIARLGKEINNPESVYYWAQKNHIPVFSPALTDGSLGDMIFFHSYKNPGLVLDIVEDLRLINTQAIFAKCTGMIILGGGVVKHHIANANLMRNGADYAVYINTAQEFDGSDSGARPDEAVSWGKIRVDAQPVKVYADASLVFPLLVAETFAQKMDAFMHEKNED
notes: human deoxyhypusine synthase, Uniprot P49366, residues 53-369 (lacks the N-terminal ball-and-chain motif, residues 1-52); Cloned in pET24d with an N-terminal 6xHis-tag and a TEV site; also called truncation mutant; source: E. coli BL21(DE3), purified (HisTrap, TEV cleavage, reverse HisTrap, SEC); not shown: His6, N-terminal, cleaved
B2: deoxyhypusine synthase (DHS), full-length, wild type (enzyme, human, UniProt P49366 1-369, looked up)
chain: MEGSLEREAPAGALAAVLKHSSTLPPESTQVRGYDFNRGVNYRALLEAFGTTGFQATNFGRAVQQVNAMIEKKLEPLSQDEDQHADLTQSRRPLTSCTIFLGYTSNLISSGIRETIRYLVQHNMVDVLVTTAGGVEEDLIKCLAPTYLGEFSLRGKELRENGINRIGNLLVPNENYCKFEDWLMPILDQMVMEQNTEGVKWTPSKMIARLGKEINNPESVYYWAQKNHIPVFSPALTDGSLGDMIFFHSYKNPGLVLDIVEDLRLINTQAIFAKCTGMIILGGGVVKHHIANANLMRNGADYAVYINTAQEFDGSDSGARPDEAVSWGKIRVDAQPVKVYADASLVFPLLVAETFAQKMDAFMHEKNED
modifications: Cys177 covalently modified to a β-mercaptoethanol (BME) adduct (seen in all crystal structures)
notes: human deoxyhypusine synthase, Uniprot P49366, residues 1-369; gene optimised for E. coli and synthesised; Cloned in pET24d (NcoI/BamHI) with an N-terminal 6xHis-tag and a TEV site; also called DHS wt; full length DHS; source: E. coli BL21(DE3), purified (HisTrap, TEV cleavage, reverse HisTrap, SEC); not shown: His6, N-terminal, cleaved

Biological target: the molecule itself
Assay: SEC-MALS; pure protein on XBridge BEH200 7.8 x 300 in 50 mM Tris 7.8, 200 mM NaCl, 5 mM β-ME, 1 mL/min; MALS with refractive index

Protein	stoichiometry N
B1	2
B2	4
